B1: SEQ ID NO: 6: Segniliparus rotundus carboxylate reductase, N-terminal HIS tagged (protein, listed as Segniliparus rotundus)
chain: MTQSHTQGPQASAAHSRLARRAAELLATDPQAAATLPDPEVVRQATRPGLRLAERVDAILSGYADRPALGQRSFQTVKDPITGRSSVELLPTFDTITYRELRERATAIASDLAHHPQAPAKPGDFLASIGFISVDYVAIDIAGVFAGLTAVPLQTGATLATLTAITAETAPTLFAASIEHLPTAVDAVLATPSVRRLLVFDYRAGSDEDREAVEAAKRKIADAGSSVLVDVLDEVIARGKSAPKAPLPPATDAGDDSLSLLIYTSGSTGTPKGAMYPERNVAHFWGGVWAAAFDEDAAPPVPAINITFLPLSHVASRLSLMPTLARGGLMHFVAKSDLSTLFEDLKLARPTNLFLVPRVVEMLYQHYQSELDRRGVQDGTREAEAVKDDLRTGLLGGRILTAGFGSAPLSAELAGFIESLLQIHLVDGYGSTEAGPVWRDGYLVKPPVTDYKLIDVPELGYFSTDSPHPRGELAIKTQTILPGYYKRPETTAEVFDEDGFYLTGDVVAQIGPEQFAYVDRRKNVLKLSQGEFVTLAKLEAAYSSSPLVRQLFVYGSSERSYLLAVIVPTPDALKKFGVGEAAKAALGESLQKIARDEGLQSYEVPRDFIIETDPFTVENGLLSDARKSLRPKLKEHYGERLEAMYKELADGQANELRDIRRGVQQRPTLETVRRAAAAMLGASAAEIKPDAHFTDLGGDSLSALTFSNFLHDLFEVDVPVGVIVSAANTLGSVAEHIDAQLAGGRARPTFATVHGKGSTTIKASDLTLDKFIDEQTLEAAKHLPKPADPPRTVLLTGANGWLGRFLALEWLERLAPAGGKLITIVRGKDAAQAKARLDAAYESGDPKLAGHYQDLAATTLEVLAGDFSEPRLGLDEATWNRLADEVDFISHPGALVNHVLPYNQLFGPNVAGVAEIIKLAITTRIKPVTYLSTVAVAAGVEPSALDEDGDIRTVSAERSVDEGYANGYGNSKWGGEVLLREAHDRTGLPVRVFRSDMILAHQKYTGQVNATDQFTRLVQSLLATGLAPKSFYELDAQGNRQRAHYDGIPVDFTAESITTLGGDGLEGYRSYNVFNPHRDGVGLDEFVDWLIEAGHPITRIDDYDQWLSRFETSLRGLPESKRQASVLPLLHAFARPGPAVDGSPFRNTVFRTDVQKAKIGAEHDIPHLGKALVLKYADDIKQLGLL
modifications: N-terminal His tag
notes: Segniliparus rotundus carboxylate reductase, N-terminal HIS tagged
B2: SEQ ID NO: 7: Chromobacterium violaceum ω-transaminase, N-terminal HIS tagged (protein, listed as Chromobacterium violaceum)
chain: MQKQRTTSQWRELDAAHHLHPFTDTASLNQAGARVMTRGEGVYLWDSEGNKIIDGMAGLWCVNVGYGRKDFAEAARRQMEELPFYNTFFKTTHPAVVELSSLLAEVTPAGFDRVFYTNSGSESVDTMIRMVRRYWDVQGKPEKKTLIGRWNGYHGSTIGGASLGGMKYMHEQGDLPIPGMAHIEQPWWYKHGKDMTPDEFGVVAARWLEEKILEIGADKVAAFVGEPIQGAGGVIVPPATYWPEIERICRKYDVLLVADEVICGFGRTGEWFGHQHFGFQPDLFTAAKGLSSGYLPIGAVFVGKRVAEGLIAGGDFNHGFTYSGHPVCAAVAHANVAALRDEGIVQRVKDDIGPYMQKRWRETFSRFEHVDDVRGVGMVQAFTLVKNKAKRELFPDFGEIGTLCRDIFFRNNLIMRACGDHIVSAPPLVMTRAEVDEMLAVAERCLEEFEQTLKARGLA
modifications: N-terminal His tag
notes: Chromobacterium violaceum ω-transaminase, N-terminal HIS tagged

How the values were obtained:
[1] = carboxylate reductase activity: pimelate to pimelate semialdehyde (NADPH consumption, A340); assay type: biochemical; details: purified enzyme enhanced by sfp gene product, 2 mM pimelate, pH 7.5, room temperature, 20 min; against the empty vector control (FIG. 8)
Method: A nucleotide sequence encoding a HIS-tag was added to the nucleic acid sequences from Segniliparus rugosus and Segniliparus rotundus that encode the carboxylate reductases of SEQ ID NOs: 4 (EFV11917.1) and 6 (ADG98140.1), respectively (see FIG. 6), such that N-terminal HIS tagged carboxylate reductases could be produced. Each of the modified genes was cloned into a pET Duet expression vector along with a sfp gene encoding a HIS-tagged phosphopantetheine transferase from Bacillus subtilis, both under the T7 promoter. Each expression vector was transformed into a BL21[DE3] E. coli host and the resulting recombinant E. coli strains were cultivated at 37° C. in a 250 mL shake flask culture containing 50 mL LB media and antibiotic selection pressure, with shaking at 230 rpm. Each culture was induced overnight at 37° C. using an auto-induction media.
The pellet from each induced shake flask culture was harvested via centrifugation. Each pellet was resuspended and lysed via sonication, and the cell debris was separated from the supernatant via centrifugation. […]
Enzyme activity assays (i.e., from pimelate to pimelate semialdehyde) were performed in triplicate in a buffer composed of a final concentration of 50 mM HEPES buffer (pH=7.5), 2 mM pimelate, 10 mM MgCl2, 1 mM ATP and 1 mM NADPH. […] The consumption of NADPH was monitored by absorbance at 340 nm. […]

[2] = carboxylate reductase activity: N7-acetyl-7-aminoheptanoate to N7-acetyl-7-aminoheptanal (NADPH consumption, A340); assay type: biochemical; details: purified enzyme enhanced by sfp gene product, 2 mM N7-acetyl-7-aminoheptanoate, pH 7.5, room temperature, 20 min; against the empty vector control (FIG. 10)
Method: The activity of each of the N-terminal His-tagged carboxylate reductases of SEQ ID NOs: 3, 5, and 6 (see Examples 2 and 3, and FIG. 6) for converting N7-acetyl-7-aminoheptanoate to N7-acetyl-7-aminoheptanal was assayed in triplicate in a buffer composed of a final concentration of 50 mM HEPES buffer (pH=7.5), 2 mM N7-acetyl-7-aminoheptanoate, 10 mM MgCl2, 1 mM ATP, and 1 mM NADPH. The assays were initiated by adding purified carboxylate reductase and phosphopantetheine transferase or the empty vector control to the assay buffer containing the N7-acetyl-7-aminoheptanoate then incubated at room temperature for 20 min. The consumption of NADPH was monitored by absorbance at 340 nm.

[3] = carboxylate reductase activity: pimelate semialdehyde to heptanedial (NADPH consumption, A340); assay type: biochemical; details: purified enzyme enhanced by sfp gene product, 2 mM pimelate semialdehyde, pH 7.5, room temperature, 20 min; against the empty vector control (FIG. 11)
Method: The N-terminal His-tagged carboxylate reductase of SEQ ID NO: 6 (see Example 3 and FIG. 6) was assayed using pimelate semialdehyde as substrate. The enzyme activity assay was performed in triplicate in a buffer composed of a final concentration of 50 mM HEPES buffer (pH=7.5), 2 mM pimelate semialdehyde, 10 mM MgCl2, 1 mM ATP and 1 mM NADPH. The enzyme activity assay reaction was initiated by adding purified carboxylate reductase and phosphopantetheine transferase or the empty vector control to the assay buffer containing the pimelate semialdehyde and then incubated at room temperature for 20 min. The consumption of NADPH was monitored by absorbance at 340 nm.

[4] = ω-transaminase activity, reverse direction: 7-aminoheptanoate to pimelate semialdehyde (L-alanine formation by RP-HPLC); assay type: biochemical; details: cell free extract, 10 mM 7-aminoheptanoate, 10 mM pyruvate, pH 7.5, 25° C., 4 h; against the empty vector control (FIG. 13)
Method: (§1) A nucleotide sequence encoding an N-terminal His-tag was added to the nucleic acid sequences from Chromobacterium violaceum, Pseudomonas syringae, Rhodobacter sphaeroides, and Vibrio fluvialis encoding the ω-transaminases of SEQ ID NOs: 7, 9, 10 and 12, respectively (see FIG. 6) such that N-terminal HIS tagged ω-transaminases could be produced. Each of the resulting modified genes was cloned into a pET21a expression vector under control of the T7 promoter and each expression vector was transformed into a BL21[DE3] E. coli host. The resulting recombinant E. coli strains were cultivated at 37° C. in a 250 mL shake flask culture containing 50 mL LB media and antibiotic selection pressure, with shaking at 230 rpm. Each culture was induced overnight at 16° C. using 1 mM IPTG.
(§2) The pellet from each induced shake flask culture was harvested via centrifugation. Each pellet was resuspended and lysed via sonication. The cell debris was separated from the supernatant via centrifugation and the cell free extract was used immediately in enzyme activity assays.
Enzyme activity assays in the reverse direction (i.e., 7-aminoheptanoate to pimelate semialdehyde) were performed in a buffer composed of a final concentration of 50 mM HEPES buffer (pH=7.5), 10 mM 7-aminoheptanoate, 10 mM pyruvate and 100 μM pyridoxyl 5′ phosphate. Each enzyme activity assay reaction was initiated by adding cell free extract of the ω-transaminase gene product or the empty vector control to the assay buffer containing the 7-aminoheptanoate and incubated at 25° C. for 4 h, with shaking at 250 rpm. The formation of L-alanine from pyruvate was quantified via RP-HPLC.

[5] = ω-transaminase activity, forward direction: pimelate semialdehyde to 7-aminoheptanoate (pyruvate formation by RP-HPLC); assay type: biochemical; details: conclusion from reverse and forward assays of Example 1
Method: as §1, §2
Enzyme activity in the forward direction (i.e., pimelate semialdehyde to 7-aminoheptanoate) was confirmed for the transaminases of SEQ ID NO 9, SEQ ID NO 10 and SEQ ID NO 12. Enzyme activity assays were performed in a buffer composed of a final concentration of 50 mM HEPES buffer (pH=7.5), 10 mM pimelate semialdehyde, 10 mM L-alanine and 100 μM pyridoxyl 5′ phosphate. Each enzyme activity assay reaction was initiated by adding a cell free extract of the ω-transaminase gene product or the empty vector control to the assay buffer containing the pimelate semialdehyde and incubated at 25° C. for 4 h, with shaking at 250 rpm. The formation of pyruvate was quantified via RP-HPLC.

[6] = ω-transaminase activity: 7-aminoheptanol to 7-oxoheptanol (L-alanine formation by RP-HPLC); assay type: biochemical
Method: A nucleotide sequence encoding an N-terminal His-tag was added to the Chromobacterium violaceum, Pseudomonas syringae and Rhodobacter sphaeroides nucleic acids encoding the ω-transaminases of SEQ ID NOs: 7, 9 and 10, respectively (see FIG. 6) such that N-terminal HIS tagged ω-transaminases could be produced. The modified genes were cloned into a pET21a expression vector under the T7 promoter. Each expression vector was transformed into a BL21[DE3] E. coli host. Each resulting recombinant E. coli strain were cultivated at 37° C. in a 250 mL shake flask culture containing 50 mL LB media and antibiotic selection pressure, with shaking at 230 rpm. Each culture was induced overnight at 16° C. using 1 mM IPTG.
as §2
Enzyme activity assays in the reverse direction (i.e., 7-aminoheptanol to 7-oxoheptanol) were performed in a buffer composed of a final concentration of 50 mM HEPES buffer (pH=7.5), 10 mM 7-aminoheptanol, 10 mM pyruvate, and […] pyridoxyl 5′ phosphate. Each enzyme activity assay reaction was initiated by adding cell free extract of the ω-transaminase gene product or the empty vector control to the assay buffer containing the 7-aminoheptanol and then incubated at 25° C. for 4 h, with shaking at 250 rpm. The formation of L-alanine was quantified via RP-HPLC.

[7] = from the literature; cited from earlier work

Row | Molecule | acceptance of pimelate as substrate (NADPH consumption) [1] | acceptance of N7-acetyl-7-aminoheptanoate as substrate (NADPH consumption) [2] | acceptance of pimelate semialdehyde as substrate, forming heptanedial (NADPH consumption) [3] | acceptance of 7-aminoheptanoate as substrate (conversion of pyruvate to L-alanine) [4] | reversibility of ω-transaminase activity: pimelate semialdehyde accepted, 7-aminoheptanoate synthesized [5] | acceptance of 7-aminoheptanol as substrate (conversion of pyruvate to L-alanine) ([6]; cell free extract, 10 mM 7-aminoheptanol, 10 mM pyruvate, pH 7.5, 25° C., 4 h, against the empty vector control (FIG. 17)) | acceptance of 7-oxoheptanol as substrate forming 7-aminoheptanol ([6]; concluded from the reversibility of the ω-transaminase activity (Example 1)) | activity on 7-aminoheptanoate (conversion to pimelate semialdehyde) [7]
1 | B1 | accepted pimelate as substrate | accepted N7-acetyl-7-aminoheptanoate as substrate | accepted pimelate semialdehyde as substrate |  |  |  |  | 
2 | B2 |  |  |  | accepted 7-aminoheptanoate as substrate | accepted pimelate semialdehyde as substrate and synthesized 7-aminoheptanoate as a reaction product | accepted 7-aminoheptanol as substrate | accept 7-oxoheptanol as substrate and form 7-aminoheptanol | demonstrated analogous activity accepting 7-aminoheptanoic acid as amino donor

Source: patent US20160201097A1, “Materials and Methods of Producing 7-Carbon Monomers” (INVISTA North America S.á.r.l., priority 2014, published 2016)
